Here are results for 3 molecules from paper PMC3335848, “Characterization of Multi-Functional Properties and Conformational Analysis of MutS2 from Thermotoga maritima MSB8” (PLoS ONE, 2012).

Broadly, the stoichiometry N is the number of molecules, sites or subunits per partner or assembly.

Series [1] deals with the molecule itself. The experiment in a line: AUC; sedimentation velocity, 20°C, 40000 rpm, 24 h, absorbance at 280 nm, C(s) method.
Series [2] concerns the target T1, TmMutS2 (Thermotoga maritima MSB8, UniProt Q9X105 1-757).
T1 sequence: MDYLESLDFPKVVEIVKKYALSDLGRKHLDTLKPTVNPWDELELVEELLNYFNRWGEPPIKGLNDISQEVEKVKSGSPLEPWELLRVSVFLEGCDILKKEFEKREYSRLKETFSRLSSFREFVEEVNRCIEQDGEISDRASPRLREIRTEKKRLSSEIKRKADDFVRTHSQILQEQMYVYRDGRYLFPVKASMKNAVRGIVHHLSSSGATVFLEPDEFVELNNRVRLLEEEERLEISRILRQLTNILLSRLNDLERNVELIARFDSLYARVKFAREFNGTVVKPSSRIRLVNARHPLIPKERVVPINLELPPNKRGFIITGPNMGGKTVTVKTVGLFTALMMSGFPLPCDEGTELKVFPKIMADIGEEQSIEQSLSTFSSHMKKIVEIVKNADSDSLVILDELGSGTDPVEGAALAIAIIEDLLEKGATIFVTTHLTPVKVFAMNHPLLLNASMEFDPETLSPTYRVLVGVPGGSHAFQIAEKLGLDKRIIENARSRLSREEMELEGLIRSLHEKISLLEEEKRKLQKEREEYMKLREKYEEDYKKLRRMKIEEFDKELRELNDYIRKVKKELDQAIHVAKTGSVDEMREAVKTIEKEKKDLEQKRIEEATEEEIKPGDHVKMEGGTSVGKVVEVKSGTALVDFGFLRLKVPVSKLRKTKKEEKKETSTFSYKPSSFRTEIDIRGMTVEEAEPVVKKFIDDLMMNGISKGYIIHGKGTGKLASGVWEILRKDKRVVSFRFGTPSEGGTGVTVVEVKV
Briefly: EMSA; no ATP; 0-2 uM protein; strongest binding among the DNAs; EMSA: 25 mM Hepes-NaOH pH 7.5, 200 mM NaCl, 0.5 mM EDTA, 37 C, 1 h; DNA 1 uM, TmMutS2 0-2 uM, +/- 1 mM ATP. The following applies: protein: recombinant; tags: His-tag removed with TEV protease (pET-28aTEV); chain copies: 2; label: 5'-32P (EMSA); four-way junction of 4 strands. A general note: A gel shift assay detects complexes by their altered migration in electrophoresis.

The target in series [3] is T1, TmMutS2. The experiment in a line: EMSA; no ATP; stronger than linear and overhang; EMSA: 25 mM Hepes-NaOH pH 7.5, 200 mM NaCl, 0.5 mM EDTA, 37 C, 1 h; DNA 1 uM, TmMutS2 0-2 uM, +/- 1 mM ATP. The following applies: protein: recombinant; tags: His-tag removed with TEV protease (pET-28aTEV); chain copies: 2; label: 5'-32P; fork; S19[1-37] paired with 3' part of S16, both other arms unpaired.

B1: Thermotoga maritima MutS2 (enzyme, Thermotoga maritima MSB8, UniProt Q9X105 1-757, looked up)
chain: MDYLESLDFPKVVEIVKKYALSDLGRKHLDTLKPTVNPWDELELVEELLNYFNRWGEPPIKGLNDISQEVEKVKSGSPLEPWELLRVSVFLEGCDILKKEFEKREYSRLKETFSRLSSFREFVEEVNRCIEQDGEISDRASPRLREIRTEKKRLSSEIKRKADDFVRTHSQILQEQMYVYRDGRYLFPVKASMKNAVRGIVHHLSSSGATVFLEPDEFVELNNRVRLLEEEERLEISRILRQLTNILLSRLNDLERNVELIARFDSLYARVKFAREFNGTVVKPSSRIRLVNARHPLIPKERVVPINLELPPNKRGFIITGPNMGGKTVTVKTVGLFTALMMSGFPLPCDEGTELKVFPKIMADIGEEQSIEQSLSTFSSHMKKIVEIVKNADSDSLVILDELGSGTDPVEGAALAIAIIEDLLEKGATIFVTTHLTPVKVFAMNHPLLLNASMEFDPETLSPTYRVLVGVPGGSHAFQIAEKLGLDKRIIENARSRLSREEMELEGLIRSLHEKISLLEEEKRKLQKEREEYMKLREKYEEDYKKLRRMKIEEFDKELRELNDYIRKVKKELDQAIHVAKTGSVDEMREAVKTIEKEKKDLEQKRIEEATEEEIKPGDHVKMEGGTSVGKVVEVKSGTALVDFGFLRLKVPVSKLRKTKKEEKKETSTFSYKPSSFRTEIDIRGMTVEEAEPVVKKFIDDLMMNGISKGYIIHGKGTGKLASGVWEILRKDKRVVSFRFGTPSEGGTGVTVVEVKV
notes: MutS2 of Thermotoga maritima MSB8, gene amplified from genomic DNA; 89 kDa; residue numbers run to 757; Vector pET-28aTEV; also called TmMutS2; apo-TmMutS2; source: E. coli BL21 (DE3), purified (heat step at 65°C, Ni-NTA, TEV cleavage, Heparin Hitrap HP, Superdex 200 HR)
On to B1, for which, in series [1], the “stoichiometry N” value was 2.

B2: Four-way junction (FWJ, DNA 3) (structured_DNA)
DNA 1: GACGCTGCCGAATCCTACCAGTGCCTTGCTAGGACATCTTTGCCCACCTGCAGGTCACCC
DNA 2: TGGGTGAACCTGCAGGTGGGCAAAGATGTCCTAGCAATGTAATCGTCAAGCTTTATGCCGTT
DNA 3: ATCGATAGTCGGATCCTCTAGACAGCATGTCCTAGCAAGGCACTGGTAGAATTCGGCAGCGT
DNA 4: CAACGGCATAAAGCTTGACGATTACATTGCTAGGACATGCTGTCTAGAGGATCCGACTATCGA
On to B2, for which the binding result with TmMutS2 [2] is recorded as “binds”.

B3: Flayed (DNA 4, fork) (structured_DNA)
DNA 1: AACGGCATAAAGCTTGACGATTACATTGCTAGGACATGCTGTCTAGAGGATCCGACTATCGA
DNA 2: TGGGTGAACCTGCAGGTGGGCAAAGATGTCCTAGCAATGTAATCGTCAAGCTTTATGCCGTT
For B3, in the series with TmMutS2 [3], the binding result is given as “binds”.
